Experiments:
[1] = molecular target: T1, …3 (SEP3) (Arabidopsis thaliana), O22456; assay: native gel or EMSA; conditions: remark: other sources report otherwise
T1 chain: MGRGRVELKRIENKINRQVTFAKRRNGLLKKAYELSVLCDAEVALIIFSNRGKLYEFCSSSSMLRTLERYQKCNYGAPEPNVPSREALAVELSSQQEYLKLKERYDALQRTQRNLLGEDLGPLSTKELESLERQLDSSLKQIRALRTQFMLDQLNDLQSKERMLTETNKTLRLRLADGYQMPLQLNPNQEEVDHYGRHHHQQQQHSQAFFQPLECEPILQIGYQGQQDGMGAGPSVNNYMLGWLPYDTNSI

[2] = molecular target: T1, …3 (SEP3) (Arabidopsis thaliana), O22456; assay: native gel or EMSA; conditions: remark: other sources report otherwise

B1: …3 (SEP3), O22456 1-251 (natural protein)
chain: T1 chain
With B1 the stoichiometry N [1] was 2 and the stoichiometry N [2] was 4.

Source: PMC4176161
